From the NTF2 design screens of Basanta et al. (2020)

Assay: protease stability score; higher = more stable; yeast display proteolysis, trypsin and chymotrypsin;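 note: relative to predicted unfolded state with 0 unfolded-like and 1 meaning tenfold more protease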
With “SEEDHRAKHIFHLFLHWFLTGDWEIFEHYADPRMRTLVNGKNFHGWEETVKFLDHIFKELRVHHIHVDHLEVQGDKYHFEVRVDREYNGRREITIMYIHFLIFNGKVKSILIIIH” the protease stability score was 1.08.
With “SEEEESSERATKILRELLKTGNFRLLLELMDPNARLHTHINGVNIHDHGRNLARWLVERIKNAVIKINDEEVRIFNGRVEVDIDGELLINGRNFRVHEHWIFRKIDGKWFFEEVEIRVE” the protease stability score was 2.16.
Sequence “DQDDHMAKEFHKLFFDAIRTGDEDLLSMLLDPHVLMNIGNFHRHGRELVVDMQRHLYEKHGFRIHNAHVERWHIFENRLIYHLKVDGKVDGKRHVMEFDLTILKVDGVWIITSITIK” has a protease stability score of 1.44.
Sequence “SELEHVEEKLLRDLVNAIKTGDEEFFNRLLDPDDRLHEKQGDKTIDFIGREEWKRFLSQIKNLKVEFRDVDLWNGRIHMRVVIIINGREHDLELEYVIVNGRFKQFHVRIR” has a protease stability score of 2.2.
Sequence “SEDEELSKKAVEDILRNLETGDWETISRMADPHVRVDFNGVDIHGREVMSKMFEDELRDLGVTKVDVRLHDVDSQGDKVIVHHRVHVNGRTEEVEVHATKFNGKWVIKKMTVRVK” has a protease stability score of 1.19.
Sequence “DEDKKHALEMAEMLFELIWTGDEHMLKELMDPNTRLFFNGRETHGWEFLSRELIHLRHRSDFRIRDVRIIGDYLHVDGEFHTILNINGVDIELHLHMEIVLFKIDGRWVVHEIRFL” has a protease stability score of 1.72.
“EEEKDWSTEVLRLFLEMMATGDWEFLARFLDPHVKLEVDGREFHGREEVSRSLEEHFRKFGADHVEIRLRRIREVDGRLHVDGRLILHIGDKTIERDMQVHSYKIDGQWSIHEVTHK” gave a protease stability score of 1.45.
Work on “SESEEEARKVIERLFRAERTGDEDDVKHLLDPNVKIDWNGRKYHGRDDWAHYISHLGIDHSELIIKHLEYQGDKLRLHGILRYVIGDKTIEEEVFEHMQKINGRWRIREIHIK” yielded a protease stability score of 1.64.
Work on “DEKERKLLEIARLLIESFLTGDWKTFHEMLDPHVRFEVGDKEAHGWEEALRVWDHLKEEMRITDLDIHHYTVQGDKVHIDSRLHGEIDGKRVTFRTRIVVIVVNGRVKQVSYKIT” yielded a protease stability score of 1.23.
With “DEDHERSEIASKITYKIIETGNEDLFSHFADPNTRLHVNGVDSVGMEDVIKVHRKLWKDLGVDHFILHDQKVDVVDGVAEVRLDTRLRFNGREFETEVRFLVLKFNGRWWIRMIEFRVI” the protease stability score was 0.968.
“DEEEDRLRRLAKTLLENWVTGDEEMHQRFADPNTRLNVDVDGKEIHRHGREEMLKDLRHELERVDHWELRLRDMKIFDGVVDIDGELILNINGKVIRQEVRIIMVIVNGRLRSVHFQVH” showed a protease stability score of 1.26.
“SEEEELTQELFERFHHVLRTGDWREMVHLADPNARNIFENRTIVGREDVSKILSELLQRVKGIRWHIESIHVQGDFLKLDYRMQVGDKSENVEIHYLKFNGKWILKSIRFE” showed a protease stability score of 1.32.
For “SEEDRILELIARMMFNLWLTGNEEELERLVDPNARSVINGQEVHGMHETKELLRRLKEHIRIDDMRISRIEVYNGRAIVDLSVDGEFNGRRDITRVEIVIYVVDGKVRSIEFHRK”, the protease stability score was 1.78.
Sequence “SELHEKLKRDMDILEELLLTGDWEKLLKYIDPHARLEIGDKEVHGREILSEVFRDVFERIKNARIHIEHSEAINGRFDIHSEWIVNGKNRRVHIETVVINGRVDKLYFEIRHR” has a protease stability score of 1.05.
“SEFEKDSEHAARVLMHELHTGDFESLHELADPNDRNSLHIGDKHWFDHGRHWVRKWFERFKNATLIVEDIRLDVQGDKVRMEVDGHLNINGKHYRVHLIFILRKINGKWHVQQVDIHVD” showed a protease stability score of 2.41.
For “DDELKTTHKFAKEFVDQLTTGDWEWHDKLFDPDARMSMIIDGREVRLHGREELTRWHLKVFEDLGIERVHSRYEHMHVVDGQIHFRGVLEFNGQRREFHIDMRIVDGRMHEFHEIHN”, the protease stability score was 0.329.
With “DDLEEEAKDAVTKFIHLLLTGDWKEIREMVDPNVRIDVGDKEKHGWEDFIRDALYMHHQVDHIEVRIRHIDIFENRVVTHSVIYIEVNGQDIRLDLTLYIKKINGRWEIRQIEFK” the protease stability score was 1.82.
“DEEHEKLYQDLEYWVKMVRTGDEDSHLEYADPDVRLDVNGQQFIGREEFTRFFRTLSRELGLDNINFRIKDIRNVGDKIDIDGHREINGRRVRIILVAWKFNGRWYLHEERIR” gave a protease stability score of 1.39.
Sequence “DDEEDHVREMFKLHWDNLRTGDFDKWMNLADPNVRFRYIFNGVDFEYHGRDFVSQILLEIRIDRISIHHVNIFEGHSEIDAHEETTYNGKKTERKVHIELIVFNGRIHELHVEIR” has a protease stability score of 0.682.
“NELEDLVRWAWQLIVESHQTGNEHMMEELADPNMRIHINGVDLVGRKDFRKMLKDHRDRVDHLEVELTDFILIDGRVIVHGQINIQIGDKREERRVRLFLLKINGKWRIEKLEVE” gave a protease stability score of 1.64.
“DEEEEIARKYITLLVKSFLTGDERSIERLVDPHYRHDVGDKHVHGRERFTRHIYENLIRVKGIRVEVIVEHIRVINGRVEVDMQIHWKQGEFQILITSRMHVEKVDGRWLIREVEID” showed a protease stability score of 0.976.
Work on “SDLDHQARRALEETFKAFETGDEHTWNRLVDPHVRLNVNGQEFHGMELIREWFKQDRDELRLKTIELKRVSVQGDYVHIDSTYYYEYNGQHRILEVHIHAVKFDGRWVVKRIHIH” yielded a protease stability score of 0.662.
“REWKEEMLRFLTRWNKAYKTGNEQELNKLADPNVRVDINGKQLHGRELATLIVSELRIEETHVKMDTFRIVGEKAEIDSRLEIHGVYDGVKMDTHHEVVIILRKVDGQWHLTTMEER” gave a protease stability score of 0.382.
“SEHTHAAVRIMELESEYLTTGDWESVRRLLDPHVQVEIGDFHAHGWEERVRRMREIRVKVQDLRIRTIDFYNGRVELHFELHVRIEFNGRDVRQDTEIVLIVLKVNGKWLVDKIRFE” gave a protease stability score of 0.901.
In the case of “SEEESKERHNEKFLKTVHKTGDEHSWRKMLDPDVRVEYGDKHDHGWEAIERFRKELGIERIHIDDRKIRHNEVVNGQVYLHEELVGTVNGVHVQVKMLIIFHKVDGKWHVELVQIN”, the protease stability score was 0.559.
With “DEDKKLVEWVLRMLFEALRTGDEHALNNLFDPNVRIEQGDKRFHGREELIRLFHILGIDHIIIEDKDIKVFDGQLEIDGREVLIFDGRRFEIDMKIYIHKINGRWHVKSVHKD” the protease stability score was 1.78.
“DEKHEIMREALKEFITEQRTGNEDRIKQLMDPNVRIFVGDKEFHGREEVMRILKILRHELGVDNIFIILRSMHIVDGRVHLDVELHINGRIFKSELVILKIDGQWLIRSIHIE” gave a protease stability score of 1.66.
“DETKQETDRLVKMMLHAITTGDEKFIHHLIDPNVRLEVGDKSFHGREDAFEMLRKEWEDLGVKVYKPETYKSQGDWVHFHGKEHVGDKEIELNIHIHVVDGKIKFIRIEIH” gave a protease stability score of 1.2.
With “SEDIEIVKQVLEFHIRSEITGDEDTMTELLDPHTRITIGDKHIHGREEAVRILLEIANHMRIHRFHVHQVHIYDGRLEIDMRIDREYDGKRRHQEVWWIFIKVNGRWYIHSIEIR” the protease stability score was 1.67.
For “DEDTEAAIRILEDFTRHILTGDFERARELLDPHTRFDVNGVDLHGMDEVTRLLRIWKKRFDVWESDVHDVRSYDGRIHIDTHLRVRYDGVEEHTRTIFIFNKVNGRWLIEEIRVR”, the protease stability score was 1.44.
With “KEDSEIAEDIIRLLNHASSTGDEETFTHLADPNVRIKIGDKESHGREEWSRTLTELRVEFKDMKIRDVDIQGEYVFVEGELRVEITVNGRTIEIHYESHFIMEKVNGRWHVHSVMML” the protease stability score was 0.222.
In the case of “DDRDREARKLIQEITHALHTGDEELMEHMLDPSVRTNINGKDIHGMDLFYKWLIELVRRLGADHLNFEVKRVQLYGNKLNTDGHLFVHQGDFTILLNVRWYNLKVNGKWIHESIEIR”, the protease stability score was 1.45.
Work on “SEEEKTVKELVRLILHLLSTGDEEKWLHLADPNMRIEIDFNGKHVELHGREHVHWLLKQFKNARIEIELKHVHVYDGVAEITSILHYHQGDFHWHTESEVMVVVVDGRIKEISFRIR” yielded a protease stability score of 2.24.
For “DESRKAMRIALEIIEHMWRTGDETLRHELADPNTRVRIGDKELHGREELIRLWKELGFKHIEEIDLESIFVQGDKIHIDTRVHGEINGRHEVMRVVLIIHKIDGKWLIHSESHR”, the protease stability score was 1.49.
Sequence “SEEERDLKEEADRFLDHVRTGDEDTLRDLIDPNVKLRVDQGDKDIELHGREEVIKFLVHMRIHHVKLNNFRIQGNKIIHDIRVDGTINGVRRDRREHLILHIVDGKIKIVEIRVE” has a protease stability score of 1.28.
With “DEDEKELERVMREFMRVWLTGNEKDFKELMDPHVRLEIGDKEHHGREEAVRILHEWRRKLGVDHSDYHHIHVQGEKMHVRGISEYNGRTVEVIIEVLIINGKLRSVHVEFR” the protease stability score was 2.57.
